Measured values reported in publication PMC7728782, “Heat induces end to end repetitive association in P. furiosusL-asparaginase which enables its thermophilic property” (Scientific Reports, 2020).
Blank lines part the entries; values can stand above or below the molecule they belong to.

How the values were obtained:
[1] = target: conjoined PfA (cPfA): N-PfA and C-PfA halves of P. furiosus L-asparaginase without the 19-residue linker (Pyrococcus furiosus) (UniProt Q8TZE8); experiment: SAXS; protein at 6 mg/mL in a thermostated quartz capillary, 25 °C; association state from I0 of the Guinier analysis against lysozyme
[2] = target: conjoined PfA (cPfA): N-PfA and C-PfA halves of P. furiosus L-asparaginase without the 19-residue linker (Pyrococcus furiosus) (UniProt Q8TZE8); experiment: SAXS; protein at 6 mg/mL in a thermostated quartz capillary, 30 °C; association state from I0 of the Guinier analysis against lysozyme
[3] = target: conjoined PfA (cPfA): N-PfA and C-PfA halves of P. furiosus L-asparaginase without the 19-residue linker (Pyrococcus furiosus) (UniProt Q8TZE8); experiment: SAXS; protein at 6 mg/mL in a thermostated quartz capillary, 40 °C; association state from I0 of the Guinier analysis against lysozyme
[4] = target: conjoined PfA (cPfA): N-PfA and C-PfA halves of P. furiosus L-asparaginase without the 19-residue linker (Pyrococcus furiosus) (UniProt Q8TZE8); experiment: SAXS; protein at 6 mg/mL in a thermostated quartz capillary, 50 °C; association state from I0 of the Guinier analysis against lysozyme
[5] = target: conjoined PfA (cPfA): N-PfA and C-PfA halves of P. furiosus L-asparaginase without the 19-residue linker (Pyrococcus furiosus) (UniProt Q8TZE8); experiment: SAXS; protein at 6 mg/mL in a thermostated quartz capillary, 60 °C; association state from I0 of the Guinier analysis against lysozyme
[6] = target: conjoined PfA (cPfA): N-PfA and C-PfA halves of P. furiosus L-asparaginase without the 19-residue linker (Pyrococcus furiosus) (UniProt Q8TZE8); experiment: SAXS; protein at 6 mg/mL in a thermostated quartz capillary, 70 °C; association state from I0 of the Guinier analysis against lysozyme
[7] = target: conjoined PfA (cPfA): N-PfA and C-PfA halves of P. furiosus L-asparaginase without the 19-residue linker (Pyrococcus furiosus) (UniProt Q8TZE8); experiment: SAXS; protein at 6 mg/mL in a thermostated quartz capillary, 80 °C; association state from I0 of the Guinier analysis against lysozyme
[8] = target: defunct cPfA (dcPfA): cPfA truncated beyond D178 of the N-terminal domain (Pyrococcus furiosus) (UniProt Q8TZE8)
[9] = target: the molecule itself; experiment: crystal structure; cPfA crystallised at 37 °C, 2.36 Å, PDB 5CBP; contacts between symmetry mates
[10] = target: the molecule itself; experiment: SAXS; protein at 6 mg/mL in a thermostated quartz capillary, 25 °C; association state from I0 of the Guinier analysis against lysozyme
[11] = target: the molecule itself; experiment: SAXS; protein at 6 mg/mL in a thermostated quartz capillary, 30 °C; association state from I0 of the Guinier analysis against lysozyme
[12] = target: the molecule itself; experiment: SAXS; protein at 6 mg/mL in a thermostated quartz capillary, 40 °C; association state from I0 of the Guinier analysis against lysozyme
[13] = target: the molecule itself; experiment: SAXS; protein at 6 mg/mL in a thermostated quartz capillary, 50 °C; association state from I0 of the Guinier analysis against lysozyme
[14] = target: the molecule itself; experiment: SAXS; protein at 6 mg/mL in a thermostated quartz capillary, 80 °C; association state from I0 of the Guinier analysis against lysozyme

B1: N-PfA, N-terminal domain chain of conjoined PfA (domain or fragment, Pyrococcus furiosus, UniProt Q8TZE8 1-182, looked up)
chain: MKILLIGMGGTIASVKGENGYEASLSVKEVLDIAGIKDCEDCDFLDLKNVDSTLIQPEDWVDLAETLYKNVKKYDGIIVTHGTDTLAYTSSMISFMLRNPPIPIVFTGSMIPATEENSDAPLNLQTAIKFATSGIRGVYVAFNGKVMLGVRTSKVRTMSRDAFESINYPIIAELRGEDLVVN
notes: N-PfA, the N-terminal half of P. furiosus L-asparaginase; ends at residue 182
- binding result [9]: binds

B2: L-asparaginase from Pyrococcus furiosus, full-length wild type (PfA) (enzyme, UniProt Q8TZE8 1-326, looked up)
chain: MKILLIGMGGTIASVKGENGYEASLSVKEVLDIAGIKDCEDCDFLDLKNVDSTLIQPEDWVDLAETLYKNVKKYDGIIVTHGTDTLAYTSSMISFMLRNPPIPIVFTGSMIPATEENSDAPLNLQTAIKFATSGIRGVYVAFNGKVMLGVRTSKVRTMSRDAFESINYPIIAELRGEDLVVNFIPKFNNGEVTLDLRHDPKVLVIKLIPGLSGDIFRAAVELGYRGIVIEGYGAGGIPYRGSDLLQTIEELSKEIPIVMTTQAMYDGVDLTRYKVGRLALRAGVIPAGDMTKEATVTKLMWILGHTNNVEEIKVLMRKNLVGELRD
notes: L-asparaginase of Pyrococcus furiosus, full length, with N-terminal domain, 19-residue linker and C-terminal domain; One protomer; the SAXS rows give the size of the oligomer it forms
- stoichiometry N [10]: 2
- stoichiometry N [11]: 2
- stoichiometry N [12]: 2
- stoichiometry N [13]: 2
- stoichiometry N [14]: 4

The remaining lines, values ahead:

- stoichiometry N [1]: 2
- stoichiometry N [2]: 2
- stoichiometry N [3]: 2
- stoichiometry N [4]: 2
- stoichiometry N [5]: 4
- stoichiometry N [6]: 8
- stoichiometry N [7]: 12
Molecule: conjoined PfA (cPfA): N-PfA and C-PfA halves of P. furiosus L-asparaginase without the 19-residue linker (from UniProt Q8TZE8 1-182; Q8TZE8 1-182) (complex)

- loss in specific activity of dcPfA relative to cPfA, 45 °C [8]: 38%
- loss in specific activity of dcPfA relative to cPfA, 60 °C [8]: 60%
- loss in specific activity of dcPfA relative to cPfA, 70 °C [8]: 80%
- loss in specific activity of dcPfA relative to cPfA, 80 °C [8]: 90%
Molecule: defunct cPfA (dcPfA): cPfA truncated beyond D178 of the N-terminal domain (from UniProt Q8TZE8 1-178; Q8TZE8 1-178) (complex)

- specific activity of dcPfA pre-incubated with LVVN peptide (different molar ratios, highest effective 500 µM) against dcPfA alone, 37 °C [8]: 1.66 fold
- specific activity of dcPfA pre-incubated with LVVN peptide (different molar ratios, highest effective 500 µM) against dcPfA alone, 45 °C [8]: 1.85 fold
- specific activity of dcPfA pre-incubated with LVVN peptide (different molar ratios, highest effective 500 µM) against dcPfA alone, 60 °C [8]: 2.36 fold
Molecule: LVVN [L-V-V-N peptide (terminal short beta-strand of the N-terminal domain of PfA, Leu179-Asn182)]
